Source: the supplement of paper PMC10065799, “High-throughput profiling of sequence recognition by tyrosine kinases and SH2 domains using bacterial peptide display” (eLife, 2023)

Assays:
c-Src = assay: phosphorylation enrichment, bacterial display (enrichment ratio); higher = better substrate or ligand; peptides without Tyr show the background
AncSZ = assay: as above
EPHB2 = EPHB2 (UniProt P29323); assay: as above
FGFR1 = FGFR1 (UniProt P11362); assay: as above
EPHB1 = EPHB1 (UniProt P54762); assay: as above
Fes = Fes (UniProt P07332); assay: as above
Chain of Fes (P07332 whole entry, looked up): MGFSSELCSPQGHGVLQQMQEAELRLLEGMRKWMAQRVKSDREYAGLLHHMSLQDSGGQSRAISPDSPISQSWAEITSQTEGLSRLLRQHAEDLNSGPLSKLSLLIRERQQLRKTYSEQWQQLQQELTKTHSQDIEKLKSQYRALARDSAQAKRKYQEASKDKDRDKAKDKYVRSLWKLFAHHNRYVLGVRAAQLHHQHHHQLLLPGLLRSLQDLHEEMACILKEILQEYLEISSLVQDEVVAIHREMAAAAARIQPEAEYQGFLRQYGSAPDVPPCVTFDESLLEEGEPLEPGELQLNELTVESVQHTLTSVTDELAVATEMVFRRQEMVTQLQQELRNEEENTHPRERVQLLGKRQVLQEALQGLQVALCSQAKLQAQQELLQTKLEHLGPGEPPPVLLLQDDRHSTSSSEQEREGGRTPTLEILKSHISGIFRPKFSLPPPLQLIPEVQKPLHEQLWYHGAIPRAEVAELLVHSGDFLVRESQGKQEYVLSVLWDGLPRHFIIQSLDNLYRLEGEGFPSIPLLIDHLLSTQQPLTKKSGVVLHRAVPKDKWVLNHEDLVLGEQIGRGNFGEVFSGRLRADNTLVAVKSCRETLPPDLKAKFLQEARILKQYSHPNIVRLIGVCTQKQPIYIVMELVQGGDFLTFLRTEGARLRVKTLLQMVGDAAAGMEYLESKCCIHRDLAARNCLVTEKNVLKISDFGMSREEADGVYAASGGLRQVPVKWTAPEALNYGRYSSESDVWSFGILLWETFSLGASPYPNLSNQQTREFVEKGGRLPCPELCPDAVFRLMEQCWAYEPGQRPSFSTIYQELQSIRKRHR

Fyn = Fyn (UniProt P06241); assay: as above
MERTK = MERTK (UniProt Q12866); assay: as above
Chain of MERTK (Q12866 whole entry, looked up): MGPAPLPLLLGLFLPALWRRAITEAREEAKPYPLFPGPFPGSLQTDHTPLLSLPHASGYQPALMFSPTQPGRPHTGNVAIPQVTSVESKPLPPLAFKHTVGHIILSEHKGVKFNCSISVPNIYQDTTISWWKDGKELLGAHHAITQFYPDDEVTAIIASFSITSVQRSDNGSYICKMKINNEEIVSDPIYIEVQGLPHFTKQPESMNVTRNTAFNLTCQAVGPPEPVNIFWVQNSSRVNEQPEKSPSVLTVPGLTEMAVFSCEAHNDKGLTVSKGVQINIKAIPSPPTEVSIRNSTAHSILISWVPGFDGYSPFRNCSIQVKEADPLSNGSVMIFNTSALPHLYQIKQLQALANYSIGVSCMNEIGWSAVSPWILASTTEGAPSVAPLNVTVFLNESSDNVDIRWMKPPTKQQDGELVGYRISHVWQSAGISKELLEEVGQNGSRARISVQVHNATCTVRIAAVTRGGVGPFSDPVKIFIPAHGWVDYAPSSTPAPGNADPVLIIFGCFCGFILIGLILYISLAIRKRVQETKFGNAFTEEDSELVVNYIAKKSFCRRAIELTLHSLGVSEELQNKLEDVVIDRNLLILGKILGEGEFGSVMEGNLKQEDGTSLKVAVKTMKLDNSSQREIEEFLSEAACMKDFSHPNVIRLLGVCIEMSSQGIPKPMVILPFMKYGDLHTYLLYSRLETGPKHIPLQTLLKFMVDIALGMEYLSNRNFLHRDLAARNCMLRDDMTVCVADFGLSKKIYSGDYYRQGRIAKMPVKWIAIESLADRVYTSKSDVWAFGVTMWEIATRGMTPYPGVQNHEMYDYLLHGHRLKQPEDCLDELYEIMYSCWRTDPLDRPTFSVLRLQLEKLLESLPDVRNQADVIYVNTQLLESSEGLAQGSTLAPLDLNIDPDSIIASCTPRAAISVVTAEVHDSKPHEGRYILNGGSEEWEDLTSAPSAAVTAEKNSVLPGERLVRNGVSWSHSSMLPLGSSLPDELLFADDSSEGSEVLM

Hck = Hck (UniProt P08631); assay: as above
Fer (mouse) = assay: as above
Jak2 = Jak2 (UniProt O60674); assay: as above
Chain of Jak2 (O60674 whole entry, looked up): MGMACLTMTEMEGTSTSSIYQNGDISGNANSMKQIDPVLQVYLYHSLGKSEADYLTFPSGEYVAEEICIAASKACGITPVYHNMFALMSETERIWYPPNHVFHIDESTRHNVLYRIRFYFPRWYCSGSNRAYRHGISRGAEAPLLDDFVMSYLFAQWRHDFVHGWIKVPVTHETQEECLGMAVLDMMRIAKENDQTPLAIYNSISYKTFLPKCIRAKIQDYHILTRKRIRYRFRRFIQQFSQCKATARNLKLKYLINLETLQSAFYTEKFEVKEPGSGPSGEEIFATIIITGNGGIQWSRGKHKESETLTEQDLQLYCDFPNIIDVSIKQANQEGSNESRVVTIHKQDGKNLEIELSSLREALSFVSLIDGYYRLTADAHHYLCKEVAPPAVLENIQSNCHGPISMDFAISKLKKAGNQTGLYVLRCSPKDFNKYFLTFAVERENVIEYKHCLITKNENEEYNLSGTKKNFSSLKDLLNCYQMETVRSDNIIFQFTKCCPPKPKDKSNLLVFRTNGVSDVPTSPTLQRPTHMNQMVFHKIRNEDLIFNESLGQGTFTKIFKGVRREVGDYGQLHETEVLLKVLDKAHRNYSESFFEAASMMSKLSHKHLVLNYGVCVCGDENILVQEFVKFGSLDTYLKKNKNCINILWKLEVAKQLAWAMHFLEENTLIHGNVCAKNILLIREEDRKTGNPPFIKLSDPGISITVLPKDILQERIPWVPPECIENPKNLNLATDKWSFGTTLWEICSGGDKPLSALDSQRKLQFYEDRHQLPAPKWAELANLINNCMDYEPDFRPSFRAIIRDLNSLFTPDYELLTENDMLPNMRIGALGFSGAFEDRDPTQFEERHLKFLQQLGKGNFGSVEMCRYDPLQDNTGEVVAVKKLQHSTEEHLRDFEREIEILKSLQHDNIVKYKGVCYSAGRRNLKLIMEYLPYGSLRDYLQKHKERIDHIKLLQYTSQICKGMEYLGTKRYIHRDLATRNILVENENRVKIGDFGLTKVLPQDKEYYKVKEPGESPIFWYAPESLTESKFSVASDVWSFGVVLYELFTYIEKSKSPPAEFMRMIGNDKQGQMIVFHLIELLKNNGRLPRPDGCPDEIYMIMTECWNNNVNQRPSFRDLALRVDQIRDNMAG

FGFR3 = FGFR3 (UniProt P22607); assay: as above
Chain of FGFR3 (P22607 whole entry, looked up): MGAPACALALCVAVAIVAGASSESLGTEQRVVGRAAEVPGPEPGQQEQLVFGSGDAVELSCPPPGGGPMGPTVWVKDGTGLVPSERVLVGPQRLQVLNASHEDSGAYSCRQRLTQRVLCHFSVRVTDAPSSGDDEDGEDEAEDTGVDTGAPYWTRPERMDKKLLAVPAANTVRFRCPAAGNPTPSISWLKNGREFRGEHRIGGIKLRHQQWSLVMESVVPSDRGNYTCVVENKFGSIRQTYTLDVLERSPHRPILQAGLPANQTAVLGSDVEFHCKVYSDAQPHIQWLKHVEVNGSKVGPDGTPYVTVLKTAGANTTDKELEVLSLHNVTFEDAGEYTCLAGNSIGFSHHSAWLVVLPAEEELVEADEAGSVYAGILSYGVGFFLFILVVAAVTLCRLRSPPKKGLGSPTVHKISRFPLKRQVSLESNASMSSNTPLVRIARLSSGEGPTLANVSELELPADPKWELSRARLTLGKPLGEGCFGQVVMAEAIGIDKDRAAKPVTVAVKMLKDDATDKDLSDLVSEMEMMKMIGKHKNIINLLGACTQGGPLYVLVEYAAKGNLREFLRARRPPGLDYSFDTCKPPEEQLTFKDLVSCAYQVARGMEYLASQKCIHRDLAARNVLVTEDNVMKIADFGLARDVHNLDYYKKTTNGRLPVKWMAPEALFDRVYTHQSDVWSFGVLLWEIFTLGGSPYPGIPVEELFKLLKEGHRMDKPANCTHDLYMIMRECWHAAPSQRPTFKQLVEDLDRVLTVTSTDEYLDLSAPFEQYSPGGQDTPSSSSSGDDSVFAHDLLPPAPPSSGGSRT

c-Abl (mouse) = assay: as above
c-Src SH2 = assay: SH2 binding enrichment of the phosphorylated peptide, bacterial display (enrichment ratio); higher = better substrate or ligand; peptides without Tyr show the background
SHP2-C SH2 = assay: as above
Grb2 SH2 = Grb2 SH2 (UniProt P62993); assay: as above
Chain of Grb2 SH2 (P62993 whole entry, looked up, the tested form may be a part): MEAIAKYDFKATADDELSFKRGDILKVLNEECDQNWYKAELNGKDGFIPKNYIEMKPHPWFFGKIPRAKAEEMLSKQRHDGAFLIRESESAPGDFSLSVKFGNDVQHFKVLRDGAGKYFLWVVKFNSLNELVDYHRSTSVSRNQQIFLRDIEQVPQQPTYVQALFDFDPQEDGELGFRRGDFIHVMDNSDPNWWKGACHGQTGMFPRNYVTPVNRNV
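Wherever SH2 binding enrichment of the phosphorylated peptide, bacterial display is given: peptide library displayed on the E. coli surface as eCPX fusions, selected cells deep-sequenced, score is each peptide's frequency after selection divided by its frequency in the input.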
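Wherever phosphorylation enrichment, bacterial display is given: 11-residue human phosphosite peptides and single-mutation variants displayed on the E. coli surface, counted by deep sequencing, each peptide's frequency after selection divided by its frequency in the unselected input library; frequency after pTyr selection over input frequency; kinase dosed for 20-30% of maximal phosphorylation in three min.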

Chain of EPHB2 (P29323 whole entry, looked up): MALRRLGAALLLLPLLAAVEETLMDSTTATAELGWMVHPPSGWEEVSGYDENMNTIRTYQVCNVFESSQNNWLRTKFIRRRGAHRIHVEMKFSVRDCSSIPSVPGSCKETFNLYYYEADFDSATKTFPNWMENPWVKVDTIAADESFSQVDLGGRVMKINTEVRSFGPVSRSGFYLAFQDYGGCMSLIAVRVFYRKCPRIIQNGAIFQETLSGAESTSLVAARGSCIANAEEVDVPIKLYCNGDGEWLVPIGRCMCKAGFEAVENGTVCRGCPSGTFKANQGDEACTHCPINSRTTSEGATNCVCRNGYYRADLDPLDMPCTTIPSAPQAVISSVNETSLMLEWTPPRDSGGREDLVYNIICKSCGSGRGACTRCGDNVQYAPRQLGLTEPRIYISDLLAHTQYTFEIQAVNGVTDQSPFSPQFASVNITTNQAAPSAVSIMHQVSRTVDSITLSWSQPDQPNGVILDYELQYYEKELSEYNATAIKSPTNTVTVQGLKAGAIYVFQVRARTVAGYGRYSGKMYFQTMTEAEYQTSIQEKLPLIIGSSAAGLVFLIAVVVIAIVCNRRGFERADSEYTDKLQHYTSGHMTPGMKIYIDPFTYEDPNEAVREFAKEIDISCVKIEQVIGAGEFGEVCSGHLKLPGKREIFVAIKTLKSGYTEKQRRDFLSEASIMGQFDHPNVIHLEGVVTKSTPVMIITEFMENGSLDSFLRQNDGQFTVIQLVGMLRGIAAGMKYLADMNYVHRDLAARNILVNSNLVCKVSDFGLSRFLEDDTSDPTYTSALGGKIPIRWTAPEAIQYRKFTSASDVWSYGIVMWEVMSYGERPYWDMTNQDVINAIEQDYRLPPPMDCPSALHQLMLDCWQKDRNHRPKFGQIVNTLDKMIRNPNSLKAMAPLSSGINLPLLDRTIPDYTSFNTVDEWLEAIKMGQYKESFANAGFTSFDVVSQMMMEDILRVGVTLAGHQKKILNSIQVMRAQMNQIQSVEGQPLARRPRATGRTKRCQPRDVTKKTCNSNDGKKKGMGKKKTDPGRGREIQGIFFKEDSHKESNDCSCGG

Sequence	phosphorylation enrichment (c-Src)	phosphorylation enrichment (AncSZ)	phosphorylation enrichment (EPHB2)	phosphorylation enrichment (FGFR1)	phosphorylation enrichment (EPHB1)	phosphorylation enrichment (Fes)	phosphorylation enrichment (Fyn)	phosphorylation enrichment (MERTK)	phosphorylation enrichment (Hck)	phosphorylation enrichment (Fer (mouse))	phosphorylation enrichment (Jak2)	phosphorylation enrichment (FGFR3)	phosphorylation enrichment (c-Abl (mouse))	SH2 binding enrichment (c-Src SH2)	SH2 binding enrichment (SHP2-C SH2)	SH2 binding enrichment (Grb2 SH2)
MVTSGYKAKTI [EFR3A_Y447]	0.292	0.413	0.312	0.299	0.337	0.458	0.361	0.377	0.322	0.314	0.364	0.375	0.42	0.44	0.744	0.748
HLRAGYIIPLQ [GAA_Y822]	0.327	0.668	0.453	0.367	0.398	0.753	0.417	0.355	0.268	0.257	0.671	0.534	0.681	1.66	3.2	1.66
VSKGGYFSVNL [C3orf33_Y164]	0.44	0.875	0.672	0.428	0.556	0.972	0.485	0.418	0.483	0.423	1.08	0.599	0.682	2.06	1.07	0.872
VDTFWYKFLKR [EPM2A_Y86]	0.371	1.21	0.629	0.553	0.657	1.18	0.406	0.432	0.467	0.525	1.05	0.716	0.78	0.602	1.04	0.957
EKQVAYCPSGK [ROS1_Y2323]	0.358	0.634	0.445	0.49	0.413	0.795	0.383	0.412	0.442	0.32	0.638	0.505	0.567	0.464	0.844	0.879
HGEAYYSEVKA [PAK5_Y182_P187A]	2.22	1.04	0.563	2.83	0.926	0.773	1.68	4.12	2.47	3.92	1.98	1.85	0.506	4.04	0.897	0.994
VVQGIYGYHHH [UFSP2_Y285_Y290H]	9.1	0.67	2.92	0.541	0.857	0.758	11.2	10.3	10.7	13.8	0.555	0.488	5.2	0.652	1.23	1.11
STGSRYQPLAS [NCAPD2_Y1325]	0.423	0.474	0.435	0.42	0.424	0.609	0.433	0.549	0.414	0.423	0.596	0.494	0.505	0.486	0.651	0.826
LTERGYSFTTK [ACTG1_Y198_T203K]	0.982	3	2.03	1.96	1.8	2.1	1.66	1.79	0.911	2.1	1.65	1.54	0.995	0.454	0.653	0.679
DTYDPYLDVAL [USP36_Y268]	1.43	1.55	0.776	0.742	0.805	1.32	1.19	0.412	0.846	0.661	1.1	0.853	0.859	0.509	0.559	0.751
STEEQYRIRQV [EFHC1_Y115]	0.331	0.718	0.416	0.425	0.314	0.589	0.475	0.345	0.41	0.375	0.516	0.554	0.43	0.609	0.738	0.802
RHTRSYDYTEG [FGF7_Y56_M59T]	0.476	0.521	0.369	0.488	0.407	0.918	0.635	0.514	0.602	0.477	0.587	0.546	0.414	1.5	0.841	0.864
ISSLRYELLEE [TRPC6_Y896]	0.397	1.24	0.573	0.52	0.63	1.17	0.511	0.533	0.597	0.544	0.832	0.764	0.621	6.86	0.754	0.832
DLSEVYKPCRK [CCDC93_Y176_R179C]	0.405	0.847	0.532	0.53	0.483	0.935	0.451	0.419	0.506	0.453	0.829	0.668	0.729	0.528	0.853	0.963
DYGSGYPNDPK [RNASEH2A_Y210]	0.575	0.86	0.625	0.548	0.482	1.01	0.474	0.569	0.574	0.538	0.93	0.643	0.778	0.319	0.589	0.699
KNGSNYVVKGN [KIT_Y823_D820G]	0.482	0.526	0.38	0.435	0.346	0.576	0.449	0.466	0.45	0.375	0.484	0.368	0.411	0.527	0.782	0.837
SPPPAFTPMSG [ERBB4_Y1056_Y1056F]	0.442	0.597	0.416	0.402	0.349	0.441	0.305	0.461	0.469	0.439	0.496	0.465	0.45	0.364	0.615	0.67
